Values belong to the molecule of their own block, whether it stands above or below them.
Experiments:
HEK293 cells = test: CNP-Fc ELISA of supernatant of AAV-transduced HEK293 cells; assay type: cell-based, Human; conditions: CNP-Fc in HEK293 supernatant 5 days after transduction with 100,000 MOI of AAV2 N54 vector
Protocol: C-type natriuretic peptide (CNP) has two isoforms, CNP-22 and CNP-53. Example 2 illustrates that CNP-36 fused with Fe increased the half-life of the CNP and also facilitated in purification and ELISA detection when compared to native (unfused) CNP. Transduction and CNP-Fc expression experiments were performed with three AAV vectors (AMI061, AMI087 and AMI0488). FIG. 1A is the pictorial depiction of the three vectors. FIGS. 1B-F illustrate additional vectors that can encode the CNP or the CNP fusion protein. Enzyme-linked immunoassay (ELISA) was developed for quantifying CNP-Fc fusion proteins in cell culture supernatants. The ELISA assay was used to quantify CNP-Fc expressed in HEK293 cells, human chondrocytes (HCH) cells, and human skeletal muscle cells (hSkMC) upon transduction with one of the three AAV constructs described herein.
Buffer and substrate. Coating buffer: 3.7 g sodium bicarbonate, 0.64 g sodium carbonate in 1 L of Milli Q water, pH 9.6. Stored at RT; Blocking buffer: Commercial Casein blocking buffer in PBS+ added 0.1% Tween20. Stored at 4° C.; Standard diluent: same as blocking buffer; Wash buffer: 1×PBS with 0.1% tween 20 (30 days expiry from date of manufacture); Coating Antibody (Ab): Human CNP Antibody (monoclonal), coating concentration was 2 μg/mL; Detection Ab: Goat pAb anti-human Fc. Diluted up to 1:20,000 final dilution in well. Stored at 4° C.; HRP: Streptavidin-HRP stock of 1 mg/mL, diluted up to 1:10,000. Stored at 4° C.; Substrate: TMB. Stored at 4° C.; and Stop solution: 2 N HCl. Stored at ambient temperature.
• 1. Coat 96-well plate with 2 μg/mL anti-CNP antibody final concentration per well in the coating buffer with a 50 μL volume and cover the plate with sealing cover. Put the plate at 4° C. overnight. • 2. Next day, remove the plate, wash thrice with wash buffer and tap the plate on the paper towel to remove excess solution. • 3. Add 300 μL of blocking buffer to each well using multichannel pipette. […] Add 50 μL stop solution and read plate at 450 nm with 600 as reference within 15 min. […]

Human NPR-B = molecular target: T1, Human NPR-B (Homo sapiens, UniProt P20594); test: Biacore SPR kinetic affinity binding to immobilized NPR-B
T1 construct: purchased R&D system
T1 sequence (P20594 23-458 limits assumed): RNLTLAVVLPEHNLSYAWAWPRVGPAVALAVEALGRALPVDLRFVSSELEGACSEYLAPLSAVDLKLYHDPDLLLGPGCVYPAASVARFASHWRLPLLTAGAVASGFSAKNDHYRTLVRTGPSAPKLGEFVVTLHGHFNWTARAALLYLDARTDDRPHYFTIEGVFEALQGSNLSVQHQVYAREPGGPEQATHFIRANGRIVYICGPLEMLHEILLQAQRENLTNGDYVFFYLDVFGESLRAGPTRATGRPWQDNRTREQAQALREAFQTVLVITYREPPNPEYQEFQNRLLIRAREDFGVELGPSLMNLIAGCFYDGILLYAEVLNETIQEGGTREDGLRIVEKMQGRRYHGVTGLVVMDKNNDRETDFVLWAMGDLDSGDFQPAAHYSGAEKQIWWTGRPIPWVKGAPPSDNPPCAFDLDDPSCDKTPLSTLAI
Protocol: The biological function of these purified protein was assayed for their stimulation of production of cGMP, using NPR-B receptor positive cell line, NIH/3T3 and NPR-B negative cell line HEK293 cells. The determination of cGMP was assay by ELISA using commercial CNP as standard curves. […] Surface preparation. NBR-B was immobilized at different levels in three flow cells via standard amine coupling, leaving Fc 1 unmodified to serve as a reference. All surface plasmon resonance (SPR) analysis was performed on a BIAcore 3000 system using series CM5 sensor chips. Data processing and analysis were performed using BIAevaluation software. All sensorgrams were double referenced by subtracting the response on a reference flow cell and a blank sample. Human NPR-B (R&D system) was covalently attached to a CM5 chip via amine coupling. A surface density of 6600 RU was used for measurements with natriuretic peptides Sequential injections of CNP (0.5-8 nM) were performed at a flow rate of […] (300 s for each), followed by a dissociation time of 900 s. […] Kinetic parameters were calculated assuming a simple 1:1 (Langmuir) binding. […] All SPR analysis was performed on a BIAcore 3000 system using series CM5 sensor chips. Data processing and analysis were performed using BIAevaluation software. All sensorgrams were double referenced by subtracting the response on a reference flow cell and a blank sample. Human NPR-B (R&D system) was covalently attached to a CM5 chip via amine coupling. A surface density of 3100 RU was used for measurements with natriuretic peptides Sequential injections of AMI263 (FC4-CNP) (0.125-2 nM) were performed at a flow rate of […] (300 s for each), followed by a dissociation time of 900 s. […] Kinetic parameters were calculated assuming a simple 1:1 (Langmuir) binding. […] All SPR analysis was performed on a BIAcore 3000 system using series CM5 sensor chips. Data processing and analysis were performed using BIAevaluation software. All sensorgrams were double referenced by subtracting the response on a reference flow cell and a blank sample. Human NPR-B (R&D system) was covalently attached to a CM5 chip via amine coupling. […] Kinetic parameters were calculated assuming a simple 1:1 (Langmuir) binding. […] All SPR analysis was performed on a BIAcore 3000 system using series CM5 sensor chips. Data processing and analysis were performed using BIAevaluation software. All sensorgrams were double referenced by subtracting the response on a reference flow cell and a blank sample. Human NPR-B (R&D system) was covalently attached to a CM5 chip via amine coupling. A surface density of 3100 RU was used for measurements with natriuretic peptides Sequential injections of AMI263 (FC4-CNP) (0.5-300 nM) were performed at a flow rate of […] (300 s for each), followed by a dissociation time of 900 s. […] Kinetic parameters were calculated assuming a simple 1:1 (Langmuir) binding. […] All SPR analysis was performed on a BIAcore 3000 system using series CM5 sensor chips. Data processing and analysis were performed using BIAevaluation software. All sensorgrams were double referenced by subtracting the response on a reference flow cell and a blank sample. Human NPR-B (R&D system) was covalently attached to a CM5 chip via amine coupling.

[1] = test system: NIH3T3 cells (cGMP secreted); test: EC50 for CNP-Fc constructs, cGMP ELISA of NIH3T3 supernatant; assay type: cell-based; conditions: NIH3T3, 30 minutes, 1.8 mM IBMX, cGMP secreted by the cells; FIG. 25B
Protocol: EC50 for CNP-Fc described herein were measured by ELISA. 2.5E+05 NIH3T3 cells/well were plated. […] After 30 minutes, supernatant was collected for cGMP determined via ELISA. FIG. 25A illustrates a standard curve of cGMP.

[2] = molecular target: T2, NPR-B on NIH/3T3 cells (NPR-B receptor positive cell line) (UniProt Q6VVW5 17-1047, limits assumed); test: cell-based or functional assay
T2 sequence (looked up): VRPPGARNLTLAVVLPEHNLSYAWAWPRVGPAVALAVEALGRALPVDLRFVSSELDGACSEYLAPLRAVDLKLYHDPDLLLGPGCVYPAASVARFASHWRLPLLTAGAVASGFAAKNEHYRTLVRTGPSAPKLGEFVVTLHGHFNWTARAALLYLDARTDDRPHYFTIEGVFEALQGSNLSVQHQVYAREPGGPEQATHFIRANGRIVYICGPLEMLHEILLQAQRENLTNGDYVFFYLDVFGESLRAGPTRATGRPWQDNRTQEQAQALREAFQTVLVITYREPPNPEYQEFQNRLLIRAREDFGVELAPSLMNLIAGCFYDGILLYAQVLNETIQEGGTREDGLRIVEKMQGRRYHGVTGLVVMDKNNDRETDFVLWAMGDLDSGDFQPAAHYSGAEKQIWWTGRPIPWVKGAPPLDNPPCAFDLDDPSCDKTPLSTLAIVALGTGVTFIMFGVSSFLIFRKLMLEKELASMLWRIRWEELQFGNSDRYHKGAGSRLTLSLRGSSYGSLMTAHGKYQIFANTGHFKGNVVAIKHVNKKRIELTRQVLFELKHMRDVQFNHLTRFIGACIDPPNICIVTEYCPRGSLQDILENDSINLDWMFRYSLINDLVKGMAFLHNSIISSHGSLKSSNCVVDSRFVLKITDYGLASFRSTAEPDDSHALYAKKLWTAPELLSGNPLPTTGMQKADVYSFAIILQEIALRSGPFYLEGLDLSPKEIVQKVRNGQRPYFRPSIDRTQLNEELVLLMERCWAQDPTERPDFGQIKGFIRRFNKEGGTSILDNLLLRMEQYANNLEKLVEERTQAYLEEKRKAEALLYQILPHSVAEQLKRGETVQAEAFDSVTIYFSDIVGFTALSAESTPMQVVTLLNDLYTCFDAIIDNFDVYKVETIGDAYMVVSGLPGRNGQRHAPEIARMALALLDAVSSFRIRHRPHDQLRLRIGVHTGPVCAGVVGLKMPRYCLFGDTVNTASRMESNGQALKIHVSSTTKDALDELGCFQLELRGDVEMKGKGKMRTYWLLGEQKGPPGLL

Molecule: AMI087: purified CNP-Fc fusion protein CNP36-(G4S)4-Fc1, SEQ ID NO: 132
- Concentration (HEK293 cells): 33 µg/mL
- ka (Human NPR-B; (FIG. 7C-7I)): 3.65E3
- kd (Human NPR-B; (FIG. 7C-7I)): 1.53E-3
- ka (Human NPR-B; Table 32 summary of affinity): 3.65E+03
- kd (Human NPR-B; Table 32 summary of affinity): 1.53E−03

Molecule: AMI269: fusion protein Fc4-(G4S)4-CNP22, SEQ ID NO: 136
- EC50 values (rank order) [1]: CNP-22 ≡Fc4-CNP36>Aflibercept-Fc4-CNP36>Fc1-CNP36>>Fc4-CNP22

- EC50 (cGMP production, drawn table, row ANP) [2]: 112 nM
- EC50 (read off the curve), cGMP production [2]: ~100 nM
Molecule: SLRRSSCFGGRMDRIGAQSGLGCNSFRY (peptide, UniProt P01160 124-151, looked up) [ANP]

From US20250099622A1, “COMPOSITIONS AND METHODS FOR EXPRESSING THERAPEUTICS” (priority 2022, published 2025)
